For this data set, the target named is TtCST WT (Ctc1-Stn1-Ten1, co-expressed with p50) (Tetrahymena, UniProt A0PGB2;Q6JXI5;D2CVN7;D2CVN8 1-622;1-373;1-164;1-422). As to the kind of experiment: EMSA.
Sequence of TtCST WT (Ctc1-Stn1-Ten1, co-expressed with p50) (A0PGB2 whole entry, chain 1 of 4): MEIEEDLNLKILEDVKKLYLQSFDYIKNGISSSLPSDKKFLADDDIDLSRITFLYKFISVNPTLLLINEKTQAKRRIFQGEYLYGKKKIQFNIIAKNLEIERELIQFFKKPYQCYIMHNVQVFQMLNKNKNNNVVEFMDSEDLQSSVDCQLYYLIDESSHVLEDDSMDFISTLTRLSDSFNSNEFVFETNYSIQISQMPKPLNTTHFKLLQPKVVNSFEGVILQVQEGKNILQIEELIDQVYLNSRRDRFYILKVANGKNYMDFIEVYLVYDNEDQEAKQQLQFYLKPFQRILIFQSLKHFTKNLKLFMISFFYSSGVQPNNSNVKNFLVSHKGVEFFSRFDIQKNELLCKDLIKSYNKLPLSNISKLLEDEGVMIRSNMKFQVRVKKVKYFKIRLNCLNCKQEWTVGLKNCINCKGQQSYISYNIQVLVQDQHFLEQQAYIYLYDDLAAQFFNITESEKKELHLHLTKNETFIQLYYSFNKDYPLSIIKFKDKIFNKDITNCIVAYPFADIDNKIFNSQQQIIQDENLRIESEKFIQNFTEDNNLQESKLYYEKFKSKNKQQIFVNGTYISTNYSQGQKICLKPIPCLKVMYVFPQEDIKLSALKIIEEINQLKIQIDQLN
Sequence of TtCST WT (Ctc1-Stn1-Ten1, co-expressed with p50) (Q6JXI5 whole entry, chain 2 of 4): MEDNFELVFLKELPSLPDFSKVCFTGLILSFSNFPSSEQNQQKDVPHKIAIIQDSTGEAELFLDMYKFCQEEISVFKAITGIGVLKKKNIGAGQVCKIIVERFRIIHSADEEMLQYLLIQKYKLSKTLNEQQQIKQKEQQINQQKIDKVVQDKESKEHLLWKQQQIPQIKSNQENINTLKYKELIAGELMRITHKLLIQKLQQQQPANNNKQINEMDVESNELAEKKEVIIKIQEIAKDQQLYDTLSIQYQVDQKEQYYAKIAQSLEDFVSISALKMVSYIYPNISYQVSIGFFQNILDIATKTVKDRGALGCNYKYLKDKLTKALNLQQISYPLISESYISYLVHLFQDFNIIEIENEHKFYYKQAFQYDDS
Sequence of TtCST WT (Ctc1-Stn1-Ten1, co-expressed with p50) (D2CVN7 whole entry, chain 3 of 4): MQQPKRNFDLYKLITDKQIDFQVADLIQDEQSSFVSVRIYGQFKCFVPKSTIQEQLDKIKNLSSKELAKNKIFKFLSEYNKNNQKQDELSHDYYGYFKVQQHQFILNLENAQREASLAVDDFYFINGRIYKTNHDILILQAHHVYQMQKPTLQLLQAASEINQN
Sequence of TtCST WT (Ctc1-Stn1-Ten1, co-expressed with p50) (D2CVN8 whole entry, chain 4 of 4): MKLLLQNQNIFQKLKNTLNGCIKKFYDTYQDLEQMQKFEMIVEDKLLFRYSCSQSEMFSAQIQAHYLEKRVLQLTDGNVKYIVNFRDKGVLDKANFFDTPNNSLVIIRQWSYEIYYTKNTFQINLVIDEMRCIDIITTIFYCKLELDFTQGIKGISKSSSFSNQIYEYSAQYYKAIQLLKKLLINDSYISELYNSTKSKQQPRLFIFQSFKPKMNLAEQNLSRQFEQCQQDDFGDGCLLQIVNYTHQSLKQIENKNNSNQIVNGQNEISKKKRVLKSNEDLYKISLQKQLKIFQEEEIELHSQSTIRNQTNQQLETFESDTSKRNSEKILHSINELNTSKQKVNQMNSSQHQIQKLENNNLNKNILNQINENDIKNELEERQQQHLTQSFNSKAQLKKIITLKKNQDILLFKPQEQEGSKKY

In general, Kd refers to the equilibrium constant for the complex coming apart. A higher Kd goes with lower affinity. Take GTTGGGGTTGGGGTTGGGGTTGGGGTTGGG (ssDNA) [d(GTTGGG)5]: the Kd was found to be 180 nM.

The values above are taken from PMC9728385.
